Experimental data: patent EP2004352B1 (Palatin Technologies, Inc., dated 2012)
Bridge positions count the residues as written; N and C are the ends.

Tests used:
[1] = molecular target: T1, human natriuretic peptide receptor A (NPRA) (human, UniProt P16066 33-1061); experiment: cell-based or functional assay
T1 sequence (looked up): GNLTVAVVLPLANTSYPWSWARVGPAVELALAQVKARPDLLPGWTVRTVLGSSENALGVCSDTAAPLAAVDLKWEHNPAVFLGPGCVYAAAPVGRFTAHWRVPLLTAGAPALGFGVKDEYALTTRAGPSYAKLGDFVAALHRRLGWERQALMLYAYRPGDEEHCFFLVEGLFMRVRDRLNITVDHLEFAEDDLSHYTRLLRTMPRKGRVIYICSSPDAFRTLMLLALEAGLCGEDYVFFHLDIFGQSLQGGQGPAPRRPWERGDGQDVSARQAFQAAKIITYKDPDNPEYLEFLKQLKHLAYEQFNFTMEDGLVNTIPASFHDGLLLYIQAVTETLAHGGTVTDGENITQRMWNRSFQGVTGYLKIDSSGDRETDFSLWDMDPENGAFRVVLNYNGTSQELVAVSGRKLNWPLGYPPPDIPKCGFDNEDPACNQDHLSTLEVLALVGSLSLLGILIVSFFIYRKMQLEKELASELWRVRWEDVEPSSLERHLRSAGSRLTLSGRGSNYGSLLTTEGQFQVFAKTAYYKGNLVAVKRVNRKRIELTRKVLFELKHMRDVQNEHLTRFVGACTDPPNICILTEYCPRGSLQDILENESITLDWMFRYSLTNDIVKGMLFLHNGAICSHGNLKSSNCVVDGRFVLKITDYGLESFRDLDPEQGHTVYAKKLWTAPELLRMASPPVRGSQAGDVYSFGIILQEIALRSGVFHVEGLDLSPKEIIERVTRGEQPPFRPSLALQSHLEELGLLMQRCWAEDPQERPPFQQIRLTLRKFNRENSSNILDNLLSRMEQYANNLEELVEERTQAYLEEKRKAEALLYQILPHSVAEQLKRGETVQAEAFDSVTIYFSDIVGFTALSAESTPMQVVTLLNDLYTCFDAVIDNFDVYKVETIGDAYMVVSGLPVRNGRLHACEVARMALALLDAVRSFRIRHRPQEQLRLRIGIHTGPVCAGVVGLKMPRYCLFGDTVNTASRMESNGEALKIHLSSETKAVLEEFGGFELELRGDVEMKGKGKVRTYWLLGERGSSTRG

[2] = molecular target: T1, human natriuretic peptide receptor A …; experiment: competition with [125I]-ANP on HEK-hNPRA membrane homogenates

B1: mini-ANP, H-Met-cyclo(Cys-His-Phe-Gly-Gly-Arg-Met-Asp-Arg-Ile-Ser-Cys)-Tyr-Arg-NH2 (peptide)
peptide: H-MCHFGGRMDRISCYR-NH2
modifications: disulfide 2-13
SMILES: CC[C@H](C)[C@@H]1NC(=O)[C@H](CCCNC(=N)N)NC(=O)[C@H](CC(=O)O)NC(=O)[C@H](CCSC)NC(=O)[C@H](CCCNC(=N)N)NC(=O)CNC(=O)CNC(=O)[C@H](Cc2ccccc2)NC(=O)[C@H](Cc2c[nH]cn2)NC(=O)[C@@H](NC(=O)[C@@H](N)CCSC)CSSC[C@@H](C(=O)N[C@@H](Cc2ccc(O)cc2)C(=O)N[C@@H](CCCNC(=N)N)C(N)=O)NC(=O)[C@H](CO)NC1=O
notes: also called min-ANP; parent polypeptide
In the case of B1, the “EC50 (cGMP accumulation)” value [1] is reported as 3.3 nM and the Ki [2] is reported as 0.6 nM.
